Reference: patent publication US20200299367A1 (ARIZONA BOARD OF REGENTS ON BEHALF OF ARIZONA STATE …, published 2020)

B1: F9T scFv (scFv)
scFv: QVQLQESGGGVVQPGRSLRLSCAASGFTFSTSGMHWVRQAPGKGLEWVAFILHDGSDKYYADSVKGRFTISRDNSKNTLYLQMNSLRAEDTAIYYCAKSQRELLGAEYLQNWGQGTLVTVSSGGGGSGGGGSGGGGSQSALTQPASVSGSPGQSITISCTGTSSDVGGYKYVSWYQQHPGKAPKVMIYDVSNRPSGVSNRFSGSKSGNTASLTISGLQAEDEADYYCSSYTSSSTLVFGGGTKVTVLGAAAHHHHHHGAAEQKLISEED
notes: Expressed from pIT2 with a hexahistidine tag and a c-myc tag; the format is named under assay; also called F9T nanobody; F9 (clone before frame-shift repair)
B2: G12C scFv (scFv)
scFv: RVQLVESGAEVTKPGASVRVSCKASGYTFSRYDINWVRQASGQGLEWMGWINPNSGNTGYAQKFQGRVTMTRNISITTAYMELSSLRSEDTAVYYCARGLPEFDPWGQGTLVTVSSGGGGSGGGGSGGGGSHVILTQDPAVSVALGQTVRITCQGDSLRSYYASWYQQKPGQAPVLVIYGKNNRPSGIPDRFSGSSSGNTASLTITGAQAEDEADFYCNSRDSSGTHLEVFGGGTKVTVLGAAAEQKLISEEDLNGAA
notes: also called G12 (clone before frame-shift repair)
B3: D4G scFv (scFv)
scFv: QVQLVASGGDLIQPGGSLRLSCAASGFTFNNYWMTWVRQAPGKGLEWVANIKQDGGEKYYVDSVKGRFTISRDNAKTSLYLQMNSLRAEDTAVYYCAKESYSTGWFDHWGQGTLVTVSSGGGGSGGGGSGGGGSNFMLTQDPAVSVALGQTVRITCQGDSLRKYYTSWYQQKPGQAPLLVMYAKNNRPSGIPDRFSGSSSGNTASLTITGAQAEDEADYYCDSRDSSGDHWVFGGGTKLTVLGAAAEQKLISEEDLNGAA
notes: also called D4 (clone before frame-shift repair)

molecular target: T1, bovine serum albumin (bovine, UniProt P02769 25-607); assay: AFM single clone screening, phage on mica coated with antigen
T1 construct: also called BSA
T1 sequence (P02769 25-607 limits assumed): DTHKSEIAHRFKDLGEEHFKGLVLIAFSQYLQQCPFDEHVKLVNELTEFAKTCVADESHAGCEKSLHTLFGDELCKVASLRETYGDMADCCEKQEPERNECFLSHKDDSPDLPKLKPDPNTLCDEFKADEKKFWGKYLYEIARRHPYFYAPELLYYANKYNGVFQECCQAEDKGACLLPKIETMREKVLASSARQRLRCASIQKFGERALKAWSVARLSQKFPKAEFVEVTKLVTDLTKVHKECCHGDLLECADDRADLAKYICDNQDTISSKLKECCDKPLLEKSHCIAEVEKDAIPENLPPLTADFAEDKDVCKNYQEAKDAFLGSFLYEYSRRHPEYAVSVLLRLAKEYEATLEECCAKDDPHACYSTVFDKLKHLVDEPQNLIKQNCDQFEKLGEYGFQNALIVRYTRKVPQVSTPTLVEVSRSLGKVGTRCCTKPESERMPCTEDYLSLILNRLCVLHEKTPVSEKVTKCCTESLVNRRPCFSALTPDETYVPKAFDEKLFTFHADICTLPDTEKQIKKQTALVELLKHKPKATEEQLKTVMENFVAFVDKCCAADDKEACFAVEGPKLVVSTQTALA

binding result | Binder
no binding | B1
no binding | B2
no binding | B3
